Assay results taken from US20110311550A1 (Scripps Research, published 2011).

B1: MAb AR1A (antibody, V domains shown)
VH: LEQSGAEVKKPGSSVKVSCRASGSPYSSYTITWVRQAPGQGLEWMGGIILMTGKANYAQKFQGRVTITADRATATAYMEMSSLTSDDTAIYYCARDPYVYAGDDVRSLSRWGQGTPVIVSS
VL: not shown
notes: also called IgG1 of Fab B2
B2: MAb AR3C (antibody, V domains shown)
VH: LEQSGAEVKKPGSSVKVSCETSGGTLDNYALNWVRQAPGQGLEWIGGVVPLFGTTRNAQKFQGRVTISDDKSTGTGHMELRSLRSEDTAVYYCVRSVTPRYCGGGFCYGEFDYWGQGTLVTVSS
VL: ELTQSPATLSVSPGERATLSCRASQSVSSNLAWYQQKPGQAPRLLIYGASTRATGIPARFSGSGSGTEFTLTVSRLEPEDSAVYFCQQYYRSPLTFGGGTKVEIKR
notes: also called IgG1 of Fab H3
B3: N4 IgG (antibody, V domains shown)
VH: VQLLEQSGPEVKKPGDSLRISCKMSGDSLVTTWIGWVRQKPGQGLEWMGIINPGDSSTNIYPGDSATRYGPSFQGQVTISIDKSTSTAYLQWNNVKASDTGIYYCARHVPVPISGTFLWREREMHDFGYFDDWGQGTLVIVSS
VL: ELTLTQSPGTLSLSPGERATLSCRASQSVSNNYLAWYQQKPGQAPRLLIYGASSRATGIPDRFSGSGSGTGFTLIISRLEPEDFAVYYCQQYGSSSITFGQGTRLEIKR
notes: also called IgG N4
B4: MAb AR3D (antibody, V domains shown)
VH: LEQSGAEVKKPGSSVKVSCKASGDTFRSYVITWARQAPGQGLEWMGAIIPFFGTTNLAQKFQGRVTITADESTKTVYMDLSSLRSDDTAVYYCAKAGDLSVGGVLAGGVPHLRHFDPWGQGTLVTVSS
VL: ELTQSPGTLSLSPGERATLSCRAGQTVASNSLAWYQHKPGQAPRLLIYGASIRASGIPDRFSGSGSGTDFTLTISRLEPEDFAVYYCQQYGLSSTFGQGTRLEIKR
notes: also called IgG1 of Fab L4
B5: MAb AR2A (antibody, V domains shown)
VH: LEQSGAEMKKPGASLKVSCKTSGYTFDDYGVTWVRQAPGQGLEWMGWISAYSGNTFYARKFQGRVTMTTDPSTRTAYMELRSLRSDDTAVYFCARDRGLAINGVVFPYFGLDVWGQGTTVTVSS
VL: ELTQSPVSLPVTPGEPASISCRSSQSLLHSNGNHYLDWYLQKPGQSPQLLMYLGSNRASGVPDRFSGSGSGTDFTLKISRVEAEDVGVYYCMQGLQTPWTFGQGTKVEIKR
notes: also called IgG1 of Fab G
B6: MAb AR1B (antibody, V domains shown)
VH: LESGGGLVQPGGSLRLSCEASGYYFSSFAMSWVRQTPGKGLEWVSSIAGGTLGRTSYRDSVKGRFTISRDNSKNTVFLHMNNLRPEDTAVYYCAKDPLLFAGGPNWFDHWGQGTLVTVSS
VL: not shown
notes: also called IgG1 of Fab D1

Experiments:
H77 E1E2 mutant N417A = H77 E1E2 mutant N417A (HCV isolate H77, UniProt P27958 192-383; P27958 384-746); assay: ELISA, alanine mutant E1E2
H77 E1E2 mutant G418A = H77 E1E2 mutant G418A (HCV isolate H77, UniProt P27958 192-383; P27958 384-746); assay: ELISA, alanine mutant E1E2
H77 E1E2 mutant W420A = H77 E1E2 mutant W420A (HCV isolate H77, UniProt P27958 192-383; P27958 384-746); assay: ELISA, alanine mutant E1E2
H77 E1E2 mutant S424A = H77 E1E2 mutant S424A (HCV isolate H77, UniProt P27958 192-383; P27958 384-746); assay: ELISA, alanine mutant E1E2
[1] = biological target: T1, vaccinia-expressed E1E2 complex, isolate HCV-1 (genotype 1a) (hepatitis C virus, isolate HCV-1, UniProt P26664 192-383; P26664 384-746); assay: competition ELISA on HCV-1 E1E2; competitor m1 (AR1A)
[2] = biological target: T2, E1E2 complex of HCV isolate H77 (genotype 1a), wild type (HCV isolate H77, UniProt P27958 192-383; P27958 384-746); assay: competition ELISA on H77 E1E2; competitor m41 (Fab O1)
[3] = biological target: T2, E1E2 complex of HCV isolate H77 …; assay: competition ELISA on H77 E1E2; competitor m46 (Fab P4)
[4] = biological target: T1, vaccinia-expressed E1E2 complex, …; assay: competition ELISA on HCV-1 E1E2; competitor m19 (CBH-4B)
[5] = biological target: E1E2 complex (H77) with E1 mutation N305A/N325A (HCV genotype 1a, isolate H77, UniProt P27958 192-383; P27958 384-746); assay: ELISA, lectin-captured E1E2 lysate, Ab 1 ug/ml;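 further: E1E2 captured on Galanthus nivalis lectin-coated plates, bound test antibody read out by an HRP-linked secondary antibody and TMB colour development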
[6] = biological target: E1E2 complex (H77) with E1 mutation V194A (HCV genotype 1a, isolate H77, UniProt P27958 192-383; P27958 384-746); assay: ELISA, lectin-captured E1E2 lysate, Ab 1 ug/ml;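 further: E1E2 captured on Galanthus nivalis lectin-coated plates, bound test antibody read out by an HRP-linked secondary antibody and TMB colour development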
[7] = biological target: E1E2 complex (H77) with E1 mutation N196A (HCV genotype 1a, isolate H77, UniProt P27958 192-383; P27958 384-746); assay: ELISA, lectin-captured E1E2 lysate, Ab 1 ug/ml;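 further: E1E2 captured on Galanthus nivalis lectin-coated plates, bound test antibody read out by an HRP-linked secondary antibody and TMB colour development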
[8] = biological target: E1E2 complex (H77) with E1 mutation N205A (HCV genotype 1a, isolate H77, UniProt P27958 192-383; P27958 384-746); assay: ELISA, lectin-captured E1E2 lysate, Ab 1 ug/ml;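 further: E1E2 captured on Galanthus nivalis lectin-coated plates, bound test antibody read out by an HRP-linked secondary antibody and TMB colour development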
[9] = biological target: E1E2 complex (H77) with E1 mutation S211A (HCV genotype 1a, isolate H77, UniProt P27958 192-383; P27958 384-746); assay: ELISA, lectin-captured E1E2 lysate, Ab 1 ug/ml
[10] = biological target: E1E2 complex (H77) with E1 mutation I212A (HCV genotype 1a, isolate H77, UniProt P27958 192-383; P27958 384-746); assay: ELISA, lectin-captured E1E2 lysate, Ab 1 ug/ml
[11] = biological target: E1E2 complex (H77) with E1 mutation P224A (HCV genotype 1a, isolate H77, UniProt P27958 192-383; P27958 384-746); assay: ELISA, lectin-captured E1E2 lysate, Ab 1 ug/ml
[12] = biological target: E1E2 complex (H77) with E1 mutation P244A (HCV genotype 1a, isolate H77, UniProt P27958 192-383; P27958 384-746); assay: ELISA, lectin-captured E1E2 lysate, Ab 1 ug/ml
[13] = biological target: E1E2 complex (H77) with E1 mutation T255A (HCV genotype 1a, isolate H77, UniProt P27958 192-383; P27958 384-746); assay: ELISA, lectin-captured E1E2 lysate, Ab 1 ug/ml
[14] = biological target: E1E2 complex (H77) with E1 mutation R259A (HCV genotype 1a, isolate H77, UniProt P27958 192-383; P27958 384-746); assay: ELISA, lectin-captured E1E2 lysate, Ab 1 ug/ml
[15] = biological target: E1E2 complex (H77) with E1 mutation G282A (HCV genotype 1a, isolate H77, UniProt P27958 192-383; P27958 384-746); assay: ELISA, lectin-captured E1E2 lysate, Ab 1 ug/ml
[16] = biological target: E1E2 complex (H77) with E1 mutation Y309A (HCV genotype 1a, isolate H77, UniProt P27958 192-383; P27958 384-746); assay: ELISA, lectin-captured E1E2 lysate, Ab 1 ug/ml
[17] = biological target: E1E2 complex (H77) with E1 mutation G311A (HCV genotype 1a, isolate H77, UniProt P27958 192-383; P27958 384-746); assay: ELISA, lectin-captured E1E2 lysate, Ab 1 ug/ml
[18] = biological target: E1E2 complex (H77) with E1 mutation W320A (HCV genotype 1a, isolate H77, UniProt P27958 192-383; P27958 384-746); assay: ELISA, lectin-captured E1E2 lysate, Ab 1 ug/ml
[19] = biological target: E1E2 complex (H77) with E1 mutation M324A (HCV genotype 1a, isolate H77, UniProt P27958 192-383; P27958 384-746); assay: ELISA, lectin-captured E1E2 lysate, Ab 1 ug/ml

Binder | binding vs wild-type E1E2 (H77 E1E2 mutant N417A) | binding vs wild-type E1E2 (H77 E1E2 mutant G418A) | binding vs wild-type E1E2 (H77 E1E2 mutant W420A) | binding vs wild-type E1E2 (H77 E1E2 mutant S424A) | % residual binding [1] | % residual binding [2] | % residual binding [3] | % residual binding [4] | further results
B1 | 17% | 51% | 141% | 103% | 15% | 76% | 85% | 102% | –
B2 | – | – | – | – | 34% | 77% | 155% | 99% | –
B3 | – | – | – | – | – | – | – | – | Binding relative to wt (%) [5]: 74%; Binding relative to wt (%) [6]: 109%; Binding relative to wt (%) [7]: 52%; Binding relative to wt (%) [8]: 3%; Binding relative to wt (%) [9]: 93%; Binding relative to wt (%) [10]: 51%; Binding relative to wt (%) [11]: 104%; Binding relative to wt (%) [12]: 95%; Binding relative to wt (%) [13]: 96%; Binding relative to wt (%) [14]: 102%; Binding relative to wt (%) [15]: 128%; Binding relative to wt (%) [16]: 32%; Binding relative to wt (%) [17]: 87%; Binding relative to wt (%) [18]: 121%; Binding relative to wt (%) [19]: 89%
B4 | 74% | 60% | 68% | 6% | 43% | 83% | 145% | 97% | –
B5 | 58% | 83% | 80% | 91% | 76% | 88% | 79% | 87% | –
B6 | 54% | 143% | 41% | 103% | 15% | 95% | 95% | 106% | –
